Experimental data taken from patent US20050255559A1 (published 2005).

Target: human calcium sensitive potassium channel α subunit (human Slowpoke α) (human, UniProt Q12791 1-1236)
Assay: cell-based or functional assay

human calcium sensitive potassium channel α subunit (human Slowpoke α), sequence (Q12791 whole entry): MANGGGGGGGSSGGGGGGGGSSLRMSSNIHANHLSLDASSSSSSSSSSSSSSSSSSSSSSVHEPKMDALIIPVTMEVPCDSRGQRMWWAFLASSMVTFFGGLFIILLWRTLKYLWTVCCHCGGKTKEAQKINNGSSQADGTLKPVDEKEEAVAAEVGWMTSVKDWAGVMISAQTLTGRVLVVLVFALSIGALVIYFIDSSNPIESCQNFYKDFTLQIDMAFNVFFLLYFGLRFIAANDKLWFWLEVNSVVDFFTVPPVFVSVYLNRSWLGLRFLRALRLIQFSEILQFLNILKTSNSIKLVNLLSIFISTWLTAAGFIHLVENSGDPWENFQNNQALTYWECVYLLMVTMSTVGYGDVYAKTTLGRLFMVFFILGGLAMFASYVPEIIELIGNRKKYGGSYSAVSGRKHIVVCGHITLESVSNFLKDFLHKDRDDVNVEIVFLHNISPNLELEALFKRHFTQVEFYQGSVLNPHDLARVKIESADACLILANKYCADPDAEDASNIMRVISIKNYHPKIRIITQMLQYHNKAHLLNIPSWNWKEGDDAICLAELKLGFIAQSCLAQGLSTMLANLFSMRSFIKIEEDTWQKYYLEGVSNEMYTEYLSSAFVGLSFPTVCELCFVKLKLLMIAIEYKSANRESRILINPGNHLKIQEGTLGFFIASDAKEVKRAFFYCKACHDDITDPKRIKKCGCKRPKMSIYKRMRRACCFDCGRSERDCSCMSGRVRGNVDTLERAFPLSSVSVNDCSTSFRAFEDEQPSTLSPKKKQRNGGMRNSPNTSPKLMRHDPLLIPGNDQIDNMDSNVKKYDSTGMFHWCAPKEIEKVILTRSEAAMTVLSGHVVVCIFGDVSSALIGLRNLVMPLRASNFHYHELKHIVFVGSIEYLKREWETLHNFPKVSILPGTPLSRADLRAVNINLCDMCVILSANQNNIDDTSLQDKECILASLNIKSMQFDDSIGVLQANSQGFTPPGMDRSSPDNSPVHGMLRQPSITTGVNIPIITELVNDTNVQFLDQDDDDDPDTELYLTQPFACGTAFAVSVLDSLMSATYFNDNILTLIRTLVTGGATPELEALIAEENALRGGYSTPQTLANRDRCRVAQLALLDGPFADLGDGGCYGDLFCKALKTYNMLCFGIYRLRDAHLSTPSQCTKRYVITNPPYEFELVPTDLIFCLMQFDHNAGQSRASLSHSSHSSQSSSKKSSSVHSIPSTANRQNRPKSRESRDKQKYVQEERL

| V1/2 (half-maximal activation voltage, Boltzmann fit, inside-out patches, 30 µM Ca2+) [mV] | Binder |
| --- | --- |
| 20 | human calcium sensitive potassium channel β3c subunit (other) MFPLLYELTAVSPSPFPQRTAFPASGKKRETDYSDGDPLDVHKRLPSSTGEDRAVMLGFAMMGFSVLMFFLLGTTILKPFMLSIQREESTCTAIHTDIMDDWLDCAFTCGVHCHGQGKYPCLQVFVNLSHPGQKALLHYNEEAVQINPKCFYTPKCHQDRSDLLNSALDIKEFFDHKNGTPFSCFYSPASQSEDVILIKKYDQMAIFHCLFWPSLTLLGGALIVGMVRLTQHLSLLCEKYSTVVRDEVGGKVPYIEQHQFKLCIMRRSKGRAEKS |
| 45.4 | human calcium sensitive potassium channel β3a subunit (other) MQPFSIPVQITLQGSRRRQGRTAFPASGKKRETDYSDGDPLDVHKRLPSSTGEDRAVMLGFAMMGFSVLMFFLLGTTILKPFMLSIQREESTCTAIHTDIMDDWLDCAFTCGVHCHGQGKYPCLQVFVNLSHPGQKALLHYNEEAVQINPKCFYTPKCHQDRSDLLNSALDIKEFFDHKNGTPFSCFYSPASQSEDVILIKKYDQMAIFHCLFWPSLTLLGGALIVGMVRLTQHLSLLCEKYSTVVRDEVGGKVPYIEQHQFKLCIMRRSKGRAEKS |
| -55 | human calcium sensitive potassium channel β2 subunit (other) MFIWTSGRTSSSYRHDEKRNIYQKIRDHDLLDKRKTVTALKAGEDRAILLGLAMMVCSIMMYFLLGITLLRSYMQSVWTEESQCTLLNASITETFNCSFSCGPDCWKLSQYPCLQVYVNLTSSGEKLLLYHTEETIKINQKCSYIPKCGKNFEESMSLVNVVMENFRKYQHFSCYSDPEGNQKSVILTKLYSSNVLFHSLFWPTCMMAGGVAIVAMVKLTQYLSLLCERIQRINR |
